From paper PMC11489326, “Characterization of lignin-degrading enzyme PmdC, which catalyzes a key step in the synthesis of polymer precursor 2-pyrone-4,6-dicarboxylic acid” (The Journal of Biological Chemistry, 2024)

Biological target: CHMS dehydrogenase PmdC from Comamonas testosteroni (Comamonas testosteroni)
Experiment: SEC; purified PmdC (wild type and mutants) in solution; conditions of the run not told in the text shown (Figs. S5, S12)

CHMS dehydrogenase PmdC from Comamonas testosteroni (enzyme)
stoichiometry N: 2
